As usually defined, the stoichiometry N is a count of units in the complex or per binding partner. By Kd is commonly meant the equilibrium constant for the complex coming apart.

The target in data set [1] is Mis16-Eic1 heterodimer (S. pombe) (UniProt O94244). The data set can be described thus: AUC.
Data set [2] concerns the target Mis18 C-terminal helical domain (Mis18C) (S. pombe) (UniProt Q9P802). The data set can be described thus: AUC.
Data set [3] addresses S. pombe Mis16 (S. pombe) (UniProt O94244). The data set can be described thus: ITC.
The target of data set [4] is Mis16-Eic1 heterodimer (S. pombe) (UniProt O94244). Nature of the data set: AUC. The source holds these as a separate data set.
The data set “AUC” concerns the molecule itself. The data set can be described thus: AUC.
Another data set concerns the target T1, S. pombe Mis16 (S. pombe, UniProt O94244 1-430).
T1 sequence (looked up): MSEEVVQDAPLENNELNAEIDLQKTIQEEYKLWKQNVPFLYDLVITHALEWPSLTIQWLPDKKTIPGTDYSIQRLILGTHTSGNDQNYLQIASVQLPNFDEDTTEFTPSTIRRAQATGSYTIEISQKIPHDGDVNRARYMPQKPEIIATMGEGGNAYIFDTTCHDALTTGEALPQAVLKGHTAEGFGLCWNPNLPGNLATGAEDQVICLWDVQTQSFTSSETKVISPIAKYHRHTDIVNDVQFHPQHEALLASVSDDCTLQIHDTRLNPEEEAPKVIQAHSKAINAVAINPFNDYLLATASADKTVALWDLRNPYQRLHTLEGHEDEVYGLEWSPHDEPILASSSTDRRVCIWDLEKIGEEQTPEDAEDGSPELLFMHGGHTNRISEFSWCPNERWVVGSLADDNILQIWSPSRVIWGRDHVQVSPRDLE
Nature of the data set: AUC.

In data set [1], “Mis18 C-terminal helical domain (Mis18C) (from UniProt Q9P802 1-194) (domain or fragment)” yielded a stoichiometry N (Mis18C per Mis16-Eic1 heterodimer) of 2. This molecule displayed a stoichiometry N in data set [2] of 2.

With “Mis18C fused to maltose binding protein (MBP-Mis18C) (domain or fragment)”, the stoichiometry N (MBP-Mis18C per Mis16-Eic1 heterodimer) in data set [1] was determined as 2.

Turning to “Trx-Eic1-CT (wild-type) (from UniProt O42995 91-112) (domain or fragment)”, the Kd in data set [3] worked out at 20.8 nM.

B1: S. pombe Mis18 (natural protein, UniProt Q9P802 1-194, looked up)
chain: MSQTETSHSGYIDFKKESQPSVFQCKKCFQIVGDSNAWVISHREYLSFTLSDAVENSVRVEDTFKRSDDGLCVYSELSCTRCNEVIGKVYNSTPIYLDDIRDMYTFSMDKLQAYQLGNKTVNPEGLTRYQVDLEMREDIIKLKSFCLSLYEKFELHDETLRSVKETISSLKKPKIEGKEGKKEKARTYSKRTRK
In data set [4], B1 came in with a stoichiometry N (Mis18 per Mis16-Eic1 heterodimer) of 2. For the same molecule, in “AUC”, the “stoichiometry N” value turned out to be 4.

B2: S. pombe Eic1 (natural protein, UniProt O42995 1-112, looked up)
chain: MDLMPLEKARAIEIAFDNVFHNTKIPDNLQQFDAILKRLERRRFIPTENQKPRVYETELLVLRFREFGVKDNHNHPINLHSLRSKSLIRAQGKKLDLHNRVFLRRNVRAVKM
Take B2: the “stoichiometry N” value in the data set with S. pombe Mis16 was 1 Eic1 per Mis16.
